Target: variant of repaired and stabilized Du422 construct (HIV161818) with the additional K655I substitution (HIV-1 clade C strain Du422)
Assay: assay not named in the sentence (data not shown); trimer yield by AlphaLISA elsewhere

mAb PGT145 (antibody)
trimer yield (PGT145 AlphaLISA signal), factor over the variant of SEQ ID NO: 25 without K655I: 1.3 fold

From patent US20230374078A1
